Patent US20050238723A1, “Method of producing hydroxyalkyl starch derivatives” (priority 2002, published 2005)

System: normocythaemic mouse
Assay: EPO-bioassay in the normocythaemic mouse system (European Pharmacopeia)
Type: in vivo
Protocol: Quantitative determination of EPO protein was performed by measuring UV absorption at 280 nm according to the Eur. Phar. (European Pharmacopeia 4, Monography January 2002: 1316: erythropoietin concentrated solution) in a cuvette with 1 cm path length. In addition, EPO was quantitated by applying a RP-HPLC method using a RP-C4 column (Vydac Protein C4, Cat.# 214TP5410, Grace Vydac, Calif., US); the HPLC method was calibrated using the erythropoietin BRP 1 reference standard (European Pharmacopeia, Conseil de l'Europe B.P. 907-F67029, Strasbourg Cedex 1).
The EPO-bioassay in the normocythaemic mouse system indicates was performed according to the procedures described in the European Pharmacopeia; the laboratory that carried out the EPO assay was using the International BRP EPO reference standard preparation. For the HES-modified EPO A2 preparation a mean value for the specific activity of 294,600 units per mg EPO of protein was determined indicating an approximately 3-fold higher specific activity when compared to the International BRP EPO reference standard preparation that was included in the samples sent for activity assays.
In vivo activity determinations are performed in normocythemic mice by measuring the increase of reticulocytes after 4 days after animals received the foreseen dose of EPO or modified EPO forms. Assays are performed using the BRP EPO standard which is calibrated against the WHO EPO standard in the polycythemic mouse assay. EPO samples are diluted in phosphate buffered saline containing 1 mg/ml of bovine serum albumin (Sigma).
0.5 ml of the EPO test solution in Dulbecco's buffered saline (corresponding to an EPO protein equivalent of a 100, 80, 40 or 20 IU/ml of the BRP standard EPO) are infected subcutaneously per animal. Blood samples are taken after 4 days after injection and reticulocytes are stained with acridine orange; quantitation of reticulocytes is performed by flow-cytometry by counting a total of 30,000 blood cells within 5 hours after the blood sample was taken (see Ph. Eur, 2000, Erythropoietini solutio concentrata, 1316, pages 780-785) and European Pharmacopoeia (1996/2000, attachment 2002).

[1] = sample diluted with 4 volume of PBS

## BRP EPO standard: erythropoietin BRP reference standard of the European Pharmacopeia [reference compound]
Sample as such
  Calculated specific activity of EPO sample (basedon A280 nm and RP-HPLC determination): 86,702 U/mg
[1]
  Calculated specific activity of EPO sample (basedon A280 nm and RP-HPLC determination): 81,200 U/mg

## Control EPO K2: control incubation of unmodified EPO-GT-1 with unmodified HES; Q-Sepharose fraction eluted with high salt
Sample as such
  Calculated specific activity of EPO sample (basedon A280 nm and RP-HPLC determination): 121,410 U/mg
[1]
  Calculated specific activity of EPO sample (basedon A280 nm and RP-HPLC determination): 114,100 U/mg
